Assay results taken from the nanobody polyreactivity screen of Harvey et al. (2022).

Assay: yeast display, Sf9 membrane polyspecificity reagent, FACS + sequencing; frameworks hold sequencing errors
Outline: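 A synthetic nanobody library was expressed on Saccharomyces cerevisiae BJ5465 by galactose induction for 36–48 hours. The library was stained for 1 hour at 4 °C with 10% biotinylated, detergent-solubilized Sf9 membrane reagent and enriched with streptavidin microbeads before FACS. Low and high (top ~1%) gates were set on anti-HA fluorescence for expression and streptavidin fluorescence for reagent binding, and each polyreactivity label reflects the gate of origin.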

| Sequence | polyreactivity (PSR sort gate) |
| --- | --- |
| QVQLVESGGGLVQAGGSLRLSCAASGITFTGYGMGWYRQAPGKERELVAAIRLRTGSTYYADSVKGRFTISRDNAKNTVYLQMYSLKPEDTAVYYCAAAFPRYRSRAIRVDYWGQGTQVTVSS | high polyreactivity |
| QVQLVESGGGLVQAGGSLRLSCAASGITFTKYAMGWYRQAPGNERELVAAITTTGGSTYYADSVKGRFTISRDKAKNTVYLQMTSLKPEETAVYYCATELGWGGFYKYGHASQFDYWGQGTQVTVSS | low polyreactivity |
| QVQLVESGGGLVQAGGSLRLSCAASGITFTKYVMGWYRQAPGKERELVATIRWGASSTHYADSVKGRFRISRDNAKNTVYFQMNSLKPEDTAVYYCNADCWYGAVYWWFYGFDYWGQGTQVTVSS | low polyreactivity |
| QVQLVESGGGLVQAGGSLRLSCAASGITFTLYAMGWYRQSPGKERELVAAISRGGGTTYYADSVKGRFTISRDNAKNTVYLQMNSLKPEDTAVYYCATDWHSSGYWGQGTQVTVSS | low polyreactivity |
| QVQLVESGGGLVQAGGSLRLSCAASGITFTNYAMGWYRQAPGKERELVAAISSRGGRTYYADSVKGRFTISRDNAKNTVYLQMNSLKPEDTAVYYCAASFFQVYGDDYWGQGTQVTVSS | high polyreactivity |
| QVQLVESGGGLVQAGGSLRLSCAASGITFTPNAMGWYRQAPGTEREFVAAITYSGGSTYYADSVKGRFTISRDNAKNTVYLQMNSLKPEDTAVYYCAAVYDLLYYEAYYYWGQGTQVTVSS | low polyreactivity |
| QVQLVESGGGLVQAGGSLRLSCAASGITFTRYAMGWYRQAPGKEREFVAAIRRSGGNTYYADSVKGRFTISRDNAKNTVYLQMNSLKPEDTAVYYCAASPDIIGTSGEDDYWGQGSQVTVSS | low polyreactivity |
| QVQLVESGGGLVQAGGSLRLSCAASGITFTSYVMGWYRQAPGKERELVAAIRWSGGRTYYADSVKGRFTISRDNAKNTVYLQMNSLKPEDTAVYYCNRVTRSHVDYWGQGTQLTVSS | high polyreactivity |
| QVQLVESGGGLVQAGGSLRLSCAASGITFTVYAMGWYRQAPGKERELVAAINSVSSTNYADSVKGRFTISRDNAKNTVYLQMNSLKPEVTAVYYCAASYRKLPDKKRYGYWGQGTKVTVSS | high polyreactivity |
| QVQLVESGGGLVQAGGSLRLSCAASGITFTVYAMGWYRQAPGKERELVAAITSTGSTNYADSVKGRFTISRDNAKNTVYLQMNSLKPEDTAVYYCAARRSHQYRGPHFNYWGQGTQVTVSS | low polyreactivity |
| QVQLVESGGGLVQAGGSLRLSCAASGITFVANAMGWYRQAPGKERELVAAITRGGSTNYADSVKGRFTISRDNAKNTVYLQMNSLKPEDTAVYYCAADYVTRIGRYDYWGQGSQVTVSS | low polyreactivity |
| QVQLVESGGGLVQAGGSLRLSCAASGITFVFYAMGWYRQAPGKARELVATISYRGTSTYYADSVKGRFTISRDNAKNTVYLQMNSLKPEDTAVSYCAGDTYIYYKTGYGYWGQGTQVTVSS | low polyreactivity |
| QVQLVESGGGLVQAGGSLRLSCAASGITFVFYAMGWYRQAPGKERELVATITWRTTRTFYADSVKRRFTISRDNAKNTVYLQMNSLKPEDTAVYYCAAGVNSTTRINDYWGQGTQVTVSS | low polyreactivity |
| QVQLVESGGGLVQAGGSLRLSCAASGITFVKNAMGWYRQAPGKERELVARIRIGGSTSYADSVKGRFTISRDNAKNTVYLQMISLKPEDTAVYYCARYAGRLSYRYEYWGQGTQVTVSS | high polyreactivity |
| QVQLVESGGGLVQAGGSLRLSCAASGITFVKNAMGWYRQAPGKERELVARIRIGGSTSYADSVKGRFTISRDNAKNTVYLQMNSLKPEDPAVYYCARYAGRLSYRYEFWGQGTQVTLSS | high polyreactivity |
| QVQLVESGGGLVQAGGSLRLSCAASGITFVNYAMGWYRQAPGKERELVAAISNGGSTYYADSVKGRFTISRDNAKNTVYLQMNSLKPEDTAVYYCAAKPVQKFRPRYGYWGQGTQVTVSS | high polyreactivity |
| QVQLVESGGGLVQAGGSLRLSCAASGITFVRNAMGWYRQAPGKEREFVAAISGSGVSTYADSVKGRFTISRDNAKNTVDEQMISLKPEDTAVYYCARDFPWSYAWYDYWGQGTLVTVSS | low polyreactivity |
| QVQLVESGGGLVQAGGSLRLSCAASGITFVSYTMGWYRQAPGTEREFVAAITWNVASTYYADSVKGRFTISRDNAKNTVYLQMNSLKPEDTAVYYCAAGYDWSVITIYDYWGQGTQVTVSS | high polyreactivity |
| QVQLVESGGGLVQAGGSLRLSCAASGITFVTYAMGWYRQAPGKERELVAAISRSGGNTYYADSVKGRFTISRDNAKNTVYLQMNSLKPEDTAVYYCAAGGHRERDYWGQGTQVTVSS | high polyreactivity |
| QVQLVESGGGLVQAGGSLRLSCAASGITFVWNAMGWYRQAPGKERELVATISRGGVRTYYADSVKGRFTISRDNAKNTVYLQMNSLKPEDTAVYYCNVDETGVLVAYSFDYWGQGTQVTVSS | low polyreactivity |
| QVQLVESGGGLVQAGGSLRLSCAASGITFVYYAMGWYRQAPGKERELVAAISVSGGSTYYADSVKGRFTISRDNAKNTVYLQMNSLKPEDTAVYYCAADGYSGIGVREGYWGQGTQVTVSS | high polyreactivity |
| QVQLVESGGGLVQAGGSLRLSCAASGITFWHNTMGWYRQAPGKERELVAAISWTGGRTYYADSVKGRFTISRDNAKNTVYLQMNSLKPEDTAVYYCAADFSWTPSGNYDSWGQGTQVTVSS | low polyreactivity |

| Sequence | polyreactivity (PSR sort gate) |
| --- | --- |
| QVQLVESGGGLVQAGGSLRLSCAASGITFWKYAMGWYRQAPGKERELVAAISGRGGSTYYADSVKGRFTISRDNAKNTVYLQMNSLKPEDTAVYYCAVGYRGWDGYWGQGTQVTVSS | high polyreactivity |
| QVQLVESGGGLVQAGGSLRLSCAASGITFWTYAMGWYRQAPGKERELVAAISKSGGSTYYADSVKGRFTISRDNAKYNVYLQLKSLKPEDTAVYYCAAKGLRYRDIDYDYWGQGTQVTVSW | low polyreactivity |
| QVQLVESGGGLVQAGGSLRLSCAASGITFWYYAMGWSRQEPGKERELVAGISRSDSNTYYADSVKGRFTISRDNAKNTLYLQMNSLKPEDTAVYYCSAYYYRRRYGGKYDYWGQGTQVTVSS | high polyreactivity |
| QVQLVESGGGLVQAGGSLRLSCAASGITFYDKAMGWYREAPGKERELVAGISYDGDSTYADSVKGRFTISRDNAKNTVYLQMNSLKPEDTAVYYCAALGPYDWLWAGDYWGQGTQVTVSS | low polyreactivity |
| QVQLVESGGGLVQAGGSLRLSCAASGITFYDNAMGWYRPAPGKERELVAGISYDGDSTYADSVKGRFTISRDNAKNTVYLQMNSLKPEDTAVYYCAALGPYDWLWAGDYWGQGTQVTVSS | low polyreactivity |
| QVQLVESGGGLVQAGGSLRLSCAASGITFYDNVMGWYRQAAGKERELVAAITSGGSTNYADSVKGRFTISRDNAKNTVYLQMNSLKPEDTAVYYCAAQPRVDYEFPYRYGYWGQGTQVTVSS | low polyreactivity |
| QVQLVESGGGLVQAGGSLRLSCAASGITFYDNVMGWYRQAPGKERELVAAITDSGGSTYYADSVKGRFTISRDNAKNTVYLQMNSLKPEDTAVYYCNADVNAHWWWYIEEYWGQGTQVTVSS | low polyreactivity |
| QVQLVESGGGLVQAGGSLRLSCAASGITFYDYAMGWYRQAPGKEREFFARITASGARTYYADSVKGRFTISRDNAKNTVYLQMNSLKPEDTAVYYCAVRGGRPSRRHYDKYDYWGQGTQVTVSS | low polyreactivity |
| QVQLVESGGGLVQAGGSLRLSCAASGITFYEYAMGLYRKAPGKERELVAAISDRGGSTYYADSVKGRFTISRDNSKNTVYLQLNSLKPEDTAVYYCAGRNTPAQLDYWGQGTQVTVSS | low polyreactivity |
| QVQLVESGGGLVQAGGSLRLSCAASGITFYEYTMGWYRQAPGKETELVAVIRKTGGSTYYADSVKGRFTISRDNAKNTVYLQMNSLKPEDTAVYYCNARYGGSGRVPRSYDYWGQGTQVTVSS | high polyreactivity |
| QVQLVESGGGLVQAGGSLRLSCAASGITFYFYAMGCERQAPGKERELVAAINRSGSSTYYADSVKGRFTISRDNAKTSVYLQMNSLNPEDTAVYYFAAGWYPWAYEDWGQGTQVTVTS | high polyreactivity |
| QVQLVESGGGLVQAGGSLRLSCAASGITFYGNAMGWYRQAPGKERELVAAITASGGRTYYADSVKGRFTISRDNAKNTVYLQMNSLKPEDTAVYYCAAKKATVVYRMEYWGQGTQVTVSS | high polyreactivity |
| QVQLVESGGGLVQAGGSLRLSCAASGITFYGNAMGWYRQAPGKERELVANTYYADSVKGRFTISRDNAKNTVYLQMNSLKPEDTAVYYCNVLFADKSDYWGQGTQVTVSS | low polyreactivity |
| QVQLVESGGGLVQAGGSLRLSCAASGITFYGYAMGWYRQAPGKERELVAAITSGGSTYYADSVKGRFTISRDNAKNTVYLQMNSLKPEDTAVYYCARYYWIRVGRYYRYEYWGQGTQVTVSS | low polyreactivity |
| QVQLVESGGGLVQAGGSLRLSCAASGITFYGYAMGWYRQAPGKERELVARISRGGRTYYADSVKGRFTISRDNAKNTVYLQMNSLKPEDTAVYYCAAGKYWYAGKYLYDYWGQGTQVTVSS | high polyreactivity |
| QVQLVESGGGLVQAGGSLRLSCAASGITFYGYAMGWYRQEPGKERELVATISSGGGTNYADSVKGRFTISRDNAKNTVYLQMNSLKPEDTAVYYCATDLSTVDYNYWGQGTQVTVSS | low polyreactivity |
| QVQLVESGGGLVQAGGSLRLSCAASGITFYGYVMGWYRQAPGKERELVAAISTSGGSTYYADSVKGRFTISRDNAKNTVYLQMNSLKPEDTAVYYCAKYLYPFYPDYDYWGQGTQVTVSS | high polyreactivity |
| QVQLVESGGGLVQAGGSLRLSCAASGITFYHYAMGWYRQAPGKERELVAAISVSGGRTYYADSVKGRFTISRDNAKITVYLQMNSLKPEDTAVYYCAKVSQVRGFYYWGQGTQVTVSS | high polyreactivity |
| QVQLVESGGGLVQAGGSLRLSCAASGITFYIYAMGWSRQAPGKEREFVASITWRGGSTYYADSVKGRFTISRDNAKNTVYLQMNSLKPEDTAVYYCNAEYSSSRYWYYDYWGQGTQVTVSS | high polyreactivity |
| QVQLVESGGGLVQAGGSLRLSCAASGITFYIYAMGWYRQAPGKEREFVASITWRGGSTYYADSVKGRFTISRDNAKNTVYLQMNSLKPEDTAVYYCNAEYSSSRYWYYDYWGQGTQVTVSS | high polyreactivity |
| QVQLVESGGGLVQAGGSLRLSCAASGITFYIYAMGWYRQAPGKERELVAAISDDGSTHYADSVKGRFTISRDNAKNTVYLHMNSLKPEDTAVYYCNADYYWFFDFFDYDYWGQGTQVTVSS | low polyreactivity |
